The test deals with neonatal FcR (FcRn) (UniProt P55899). Description: BLI + SPR.
Sequence of UniProt P55899 (P55899 24-365): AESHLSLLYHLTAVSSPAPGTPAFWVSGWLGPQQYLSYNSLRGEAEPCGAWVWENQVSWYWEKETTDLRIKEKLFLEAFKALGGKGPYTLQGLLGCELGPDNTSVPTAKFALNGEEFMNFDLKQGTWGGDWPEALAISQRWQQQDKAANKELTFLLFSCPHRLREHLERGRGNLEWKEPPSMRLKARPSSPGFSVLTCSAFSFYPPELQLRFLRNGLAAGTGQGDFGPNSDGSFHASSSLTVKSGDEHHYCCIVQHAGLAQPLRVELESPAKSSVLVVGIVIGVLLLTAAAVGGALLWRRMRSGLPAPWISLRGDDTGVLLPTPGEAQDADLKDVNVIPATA

As for BAT1806/BIIB800 (antibody), the Relative FcRn affinity (%) came to 104%.
As for reference tocilizumab (antibody), the Relative FcRn affinity (%) is 96%.
The value for forced deamidation TCZ (antibody) was 100%.

Values taken from PMC11906491.
